Reference: the supplement of paper PMC10065799, “High-throughput profiling of sequence recognition by tyrosine kinases and SH2 domains using bacterial peptide display” (eLife, 2023)

Columns and labels:
c-Src SH2 = assay: SH2 binding enrichment of the phosphorylated peptide, bacterial display (enrichment ratio); higher = better substrate or ligand; peptides without Tyr show the background
Grb2 SH2 = Grb2 SH2 (UniProt P62993); assay: as above
SHP2-C SH2 = assay: as above
c-Abl (mouse) = assay: phosphorylation enrichment, bacterial display (enrichment ratio); higher = better substrate or ligand; peptides without Tyr show the background
c-Src = assay: as above
MERTK = MERTK (UniProt Q12866); assay: as above
AncSZ = assay: as above
EPHB1 = EPHB1 (UniProt P54762); assay: as above
FGFR3 = FGFR3 (UniProt P22607); assay: as above
EPHB2 = EPHB2 (UniProt P29323); assay: as above
Jak2 = Jak2 (UniProt O60674); assay: as above
Hck = Hck (UniProt P08631); assay: as above
Fer (mouse) = assay: as above
Fyn = Fyn (UniProt P06241); assay: as above
Fes = Fes (UniProt P07332); assay: as above
FGFR1 = FGFR1 (UniProt P11362); assay: as above
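Wherever SH2 binding enrichment of the phosphorylated peptide, bacterial display is given: peptide library displayed on the E. coli surface as eCPX fusions, selected cells deep-sequenced, score is each peptide's frequency after selection divided by its frequency in the input.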
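Wherever phosphorylation enrichment, bacterial display is given: 11-residue human phosphosite peptides and single-mutation variants displayed on the E. coli surface, counted by deep sequencing, each peptide's frequency after selection divided by its frequency in the unselected input library; frequency after pTyr selection over input frequency; kinase dosed for 20-30% of maximal phosphorylation in three min.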

Sequence of FGFR3 (P22607 whole entry, looked up): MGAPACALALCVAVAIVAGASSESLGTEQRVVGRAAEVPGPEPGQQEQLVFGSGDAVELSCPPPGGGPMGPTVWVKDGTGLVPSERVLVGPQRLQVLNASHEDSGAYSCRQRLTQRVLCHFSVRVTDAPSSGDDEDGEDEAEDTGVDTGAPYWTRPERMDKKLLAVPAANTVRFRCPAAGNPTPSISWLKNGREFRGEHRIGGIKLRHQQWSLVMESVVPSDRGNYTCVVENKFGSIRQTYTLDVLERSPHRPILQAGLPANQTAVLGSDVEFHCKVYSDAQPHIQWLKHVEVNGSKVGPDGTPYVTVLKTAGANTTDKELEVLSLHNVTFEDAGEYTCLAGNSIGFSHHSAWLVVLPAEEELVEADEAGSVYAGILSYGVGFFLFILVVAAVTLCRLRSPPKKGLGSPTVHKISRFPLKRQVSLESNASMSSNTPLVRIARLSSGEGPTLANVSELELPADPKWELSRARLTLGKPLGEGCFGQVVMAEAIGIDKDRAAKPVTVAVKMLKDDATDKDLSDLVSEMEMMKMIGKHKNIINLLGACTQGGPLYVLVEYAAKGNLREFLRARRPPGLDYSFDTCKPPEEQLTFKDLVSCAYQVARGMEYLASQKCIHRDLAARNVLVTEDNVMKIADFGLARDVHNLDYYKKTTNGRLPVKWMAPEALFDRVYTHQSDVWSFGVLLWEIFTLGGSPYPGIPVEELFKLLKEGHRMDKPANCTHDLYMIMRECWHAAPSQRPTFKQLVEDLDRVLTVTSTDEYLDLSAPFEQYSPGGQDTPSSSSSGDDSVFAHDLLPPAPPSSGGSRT
Sequence of Hck (P08631 whole entry, looked up): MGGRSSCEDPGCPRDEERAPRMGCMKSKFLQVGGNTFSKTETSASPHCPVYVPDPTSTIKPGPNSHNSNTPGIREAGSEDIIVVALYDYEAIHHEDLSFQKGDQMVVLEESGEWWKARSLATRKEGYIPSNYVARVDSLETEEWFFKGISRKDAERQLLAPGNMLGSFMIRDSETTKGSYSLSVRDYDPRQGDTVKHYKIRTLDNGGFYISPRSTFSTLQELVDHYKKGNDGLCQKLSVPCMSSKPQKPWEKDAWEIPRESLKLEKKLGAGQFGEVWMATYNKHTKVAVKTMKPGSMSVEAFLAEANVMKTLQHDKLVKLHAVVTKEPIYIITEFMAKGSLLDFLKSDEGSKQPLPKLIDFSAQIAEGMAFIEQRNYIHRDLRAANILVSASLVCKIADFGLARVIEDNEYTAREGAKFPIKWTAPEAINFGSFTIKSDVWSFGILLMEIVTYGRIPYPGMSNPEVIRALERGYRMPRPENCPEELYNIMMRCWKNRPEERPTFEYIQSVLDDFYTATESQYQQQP
Sequence of Jak2 (O60674 whole entry, looked up): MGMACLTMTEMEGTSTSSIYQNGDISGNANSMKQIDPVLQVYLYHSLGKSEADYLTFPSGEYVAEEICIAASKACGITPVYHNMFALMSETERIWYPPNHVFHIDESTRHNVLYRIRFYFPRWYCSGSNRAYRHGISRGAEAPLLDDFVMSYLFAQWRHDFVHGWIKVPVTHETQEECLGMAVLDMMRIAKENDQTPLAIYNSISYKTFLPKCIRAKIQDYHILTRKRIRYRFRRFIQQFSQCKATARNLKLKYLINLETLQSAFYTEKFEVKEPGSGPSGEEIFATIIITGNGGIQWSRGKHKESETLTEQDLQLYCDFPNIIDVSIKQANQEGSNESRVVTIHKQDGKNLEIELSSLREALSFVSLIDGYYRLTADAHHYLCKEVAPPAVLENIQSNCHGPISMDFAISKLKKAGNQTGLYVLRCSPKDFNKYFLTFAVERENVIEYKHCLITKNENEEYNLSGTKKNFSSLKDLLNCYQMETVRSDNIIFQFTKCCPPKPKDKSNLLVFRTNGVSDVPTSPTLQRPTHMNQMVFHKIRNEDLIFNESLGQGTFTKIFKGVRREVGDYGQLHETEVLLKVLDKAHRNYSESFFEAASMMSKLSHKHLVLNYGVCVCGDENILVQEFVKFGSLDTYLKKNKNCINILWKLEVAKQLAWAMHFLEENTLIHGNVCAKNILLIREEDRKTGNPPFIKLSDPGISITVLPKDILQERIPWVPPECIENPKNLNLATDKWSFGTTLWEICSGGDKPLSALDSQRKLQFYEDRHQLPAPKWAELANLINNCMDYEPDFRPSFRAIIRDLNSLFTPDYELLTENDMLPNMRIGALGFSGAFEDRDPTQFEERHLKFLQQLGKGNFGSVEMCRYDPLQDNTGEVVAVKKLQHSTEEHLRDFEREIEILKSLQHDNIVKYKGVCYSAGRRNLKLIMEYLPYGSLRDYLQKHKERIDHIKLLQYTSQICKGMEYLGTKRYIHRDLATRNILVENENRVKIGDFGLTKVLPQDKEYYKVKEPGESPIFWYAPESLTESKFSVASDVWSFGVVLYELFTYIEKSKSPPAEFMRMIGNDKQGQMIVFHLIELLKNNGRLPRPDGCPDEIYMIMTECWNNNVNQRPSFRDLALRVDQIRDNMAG
Sequence of Fyn (P06241 whole entry, looked up): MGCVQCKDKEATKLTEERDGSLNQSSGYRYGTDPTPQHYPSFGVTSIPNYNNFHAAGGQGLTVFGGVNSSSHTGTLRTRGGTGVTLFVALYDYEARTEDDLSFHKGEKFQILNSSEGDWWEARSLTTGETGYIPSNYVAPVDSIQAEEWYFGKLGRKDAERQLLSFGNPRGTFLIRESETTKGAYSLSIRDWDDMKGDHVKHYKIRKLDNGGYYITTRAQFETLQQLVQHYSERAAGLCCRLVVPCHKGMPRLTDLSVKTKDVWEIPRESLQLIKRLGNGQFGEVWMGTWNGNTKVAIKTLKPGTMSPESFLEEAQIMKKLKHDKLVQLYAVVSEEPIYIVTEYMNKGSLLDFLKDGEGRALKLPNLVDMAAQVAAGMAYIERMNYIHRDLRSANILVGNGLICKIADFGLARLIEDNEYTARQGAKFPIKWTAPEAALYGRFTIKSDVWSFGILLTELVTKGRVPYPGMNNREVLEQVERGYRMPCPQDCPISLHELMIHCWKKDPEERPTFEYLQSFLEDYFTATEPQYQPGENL
Sequence of EPHB1 (P54762 whole entry, looked up): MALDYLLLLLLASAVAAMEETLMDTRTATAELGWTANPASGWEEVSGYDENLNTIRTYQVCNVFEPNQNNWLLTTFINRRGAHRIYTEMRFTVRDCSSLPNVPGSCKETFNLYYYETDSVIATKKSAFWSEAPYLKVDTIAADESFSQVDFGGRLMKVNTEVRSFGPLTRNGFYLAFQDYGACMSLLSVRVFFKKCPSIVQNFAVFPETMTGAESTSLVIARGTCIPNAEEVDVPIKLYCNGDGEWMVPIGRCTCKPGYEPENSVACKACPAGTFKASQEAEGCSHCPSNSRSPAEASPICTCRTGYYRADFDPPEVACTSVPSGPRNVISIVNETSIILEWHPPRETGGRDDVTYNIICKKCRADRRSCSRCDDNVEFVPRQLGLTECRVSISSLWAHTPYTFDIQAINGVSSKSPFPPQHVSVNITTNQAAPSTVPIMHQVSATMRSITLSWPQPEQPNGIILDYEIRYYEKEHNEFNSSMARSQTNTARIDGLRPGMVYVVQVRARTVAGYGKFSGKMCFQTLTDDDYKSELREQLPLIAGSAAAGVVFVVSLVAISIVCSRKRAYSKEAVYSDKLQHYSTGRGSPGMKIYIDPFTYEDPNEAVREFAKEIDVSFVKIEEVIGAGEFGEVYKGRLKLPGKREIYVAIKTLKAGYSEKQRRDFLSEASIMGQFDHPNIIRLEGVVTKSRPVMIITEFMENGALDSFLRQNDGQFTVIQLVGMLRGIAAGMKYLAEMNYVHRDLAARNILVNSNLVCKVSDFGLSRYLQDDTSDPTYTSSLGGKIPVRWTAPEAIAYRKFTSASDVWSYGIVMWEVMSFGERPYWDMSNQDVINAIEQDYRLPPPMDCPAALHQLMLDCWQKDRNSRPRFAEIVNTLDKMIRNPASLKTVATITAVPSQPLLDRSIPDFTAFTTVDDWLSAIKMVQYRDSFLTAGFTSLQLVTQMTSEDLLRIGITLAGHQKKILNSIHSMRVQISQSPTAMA
Sequence of Fes (P07332 whole entry, looked up): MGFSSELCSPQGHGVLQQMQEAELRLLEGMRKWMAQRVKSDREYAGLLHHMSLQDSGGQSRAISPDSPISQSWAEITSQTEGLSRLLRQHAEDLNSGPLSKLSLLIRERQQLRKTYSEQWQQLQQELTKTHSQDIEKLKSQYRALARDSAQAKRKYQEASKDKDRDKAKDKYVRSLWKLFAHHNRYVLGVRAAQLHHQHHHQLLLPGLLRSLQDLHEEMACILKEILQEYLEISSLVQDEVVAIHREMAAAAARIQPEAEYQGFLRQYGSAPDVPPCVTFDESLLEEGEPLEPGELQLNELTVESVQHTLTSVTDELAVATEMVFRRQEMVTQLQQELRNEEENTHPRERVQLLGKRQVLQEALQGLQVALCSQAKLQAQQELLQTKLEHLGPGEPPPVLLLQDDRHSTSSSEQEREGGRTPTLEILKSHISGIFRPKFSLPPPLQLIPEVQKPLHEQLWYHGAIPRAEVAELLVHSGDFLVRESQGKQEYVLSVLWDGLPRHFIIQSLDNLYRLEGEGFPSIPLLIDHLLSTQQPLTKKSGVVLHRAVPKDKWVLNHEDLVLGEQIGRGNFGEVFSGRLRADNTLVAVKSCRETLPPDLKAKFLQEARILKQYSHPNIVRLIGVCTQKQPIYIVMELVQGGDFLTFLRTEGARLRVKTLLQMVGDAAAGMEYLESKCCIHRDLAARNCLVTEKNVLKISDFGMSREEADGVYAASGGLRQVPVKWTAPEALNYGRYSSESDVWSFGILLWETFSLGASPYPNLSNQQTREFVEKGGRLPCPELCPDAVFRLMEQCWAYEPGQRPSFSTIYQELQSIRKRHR

Row | SH2 binding enrichment (c-Src SH2) | SH2 binding enrichment (Grb2 SH2) | SH2 binding enrichment (SHP2-C SH2) | Sequence | phosphorylation enrichment (c-Abl (mouse)) | phosphorylation enrichment (c-Src) | phosphorylation enrichment (MERTK) | phosphorylation enrichment (AncSZ) | phosphorylation enrichment (EPHB1) | phosphorylation enrichment (FGFR3) | phosphorylation enrichment (EPHB2) | phosphorylation enrichment (Jak2) | phosphorylation enrichment (Hck) | phosphorylation enrichment (Fer (mouse)) | phosphorylation enrichment (Fyn) | phosphorylation enrichment (Fes) | phosphorylation enrichment (FGFR1)
1 | 0.488 | 0.698 | 0.719 | IEKLTYIDEWF [CPS1_Y872_K875E] | 0.81 | 0.544 | 0.488 | 1.18 | 0.624 | 0.737 | 0.557 | 1.17 | 0.472 | 0.548 | 0.453 | 1.35 | 0.567
2 | 1.22 | 1.2 | 1.29 | KGRGEYFAIKA [PRKCD_Y374] | 0.769 | 0.47 | 0.381 | 0.702 | 0.943 | 2.67 | 0.905 | 0.702 | 0.614 | 0.451 | 0.426 | 0.666 | 4.32
3 | 0.546 | 0.803 | 0.529 | KNCFKYFMSDD [ATRX_Y203_YF] | 1.02 | 0.646 | 0.556 | 1.37 | 0.639 | 0.84 | 0.714 | 1.27 | 0.556 | 0.589 | 0.453 | 1.45 | 0.604
4 | 1.1 | 0.854 | 0.695 | ITRDIYETDYY [INSR_Y1185_M1180I] | 0.722 | 2.76 | 0.828 | 2.67 | 1.45 | 1.95 | 1.55 | 1.09 | 1.19 | 0.72 | 1.58 | 1.47 | 2.03
5 | 1.23 | 1.1 | 0.954 | DPHECYAEVFD [ALB_Y394_K396E] | 0.817 | 0.775 | 0.626 | 1.32 | 0.871 | 1.25 | 0.807 | 1.01 | 0.944 | 0.617 | 0.753 | 1.55 | 1.2
6 | 0.535 | 0.804 | 0.598 | ALAHKYRGGGG [HBD_Y146_H147R] | 0.471 | 0.432 | 0.309 | 0.404 | 0.311 | 0.364 | 0.362 | 0.351 | 0.333 | 0.315 | 0.335 | 0.495 | 0.422
7 | 0.629 | 0.724 | 0.538 | IGHHAYGDQYR [IDH1_Y135_R132H] | 0.467 | 0.418 | 0.421 | 0.564 | 0.426 | 0.342 | 0.363 | 0.448 | 0.439 | 0.386 | 0.355 | 0.537 | 0.389
8 | 0.426 | 0.808 | 0.64 | TFGVVYRAKDK [CDK11B_Y453_YF] | 0.584 | 0.513 | 0.396 | 0.831 | 0.428 | 0.506 | 0.592 | 0.703 | 0.481 | 0.372 | 0.563 | 0.798 | 0.333
9 | 0.571 | 0.666 | 0.755 | GNLLIYTKFGK [HGD_Y166_E168K] | 1.5 | 2.02 | 0.991 | 1.31 | 0.921 | 0.788 | 0.666 | 1.26 | 1.36 | 0.532 | 1.46 | 1.28 | 0.572
10 | 0.35 | 0.788 | 0.376 | AFGNLYGSRKQ [YIPF7_Y59_YF] | 0.657 | 1.09 | 0.519 | 0.526 | 0.357 | 0.398 | 0.531 | 0.505 | 2.93 | 0.409 | 0.718 | 0.55 | 0.397
11 | 1.11 | 1.05 | 0.827 | EKFVPYFDLFM [IPO5_Y530_YF] | 0.858 | 0.596 | 0.444 | 1.33 | 1.06 | 1.71 | 0.652 | 1.32 | 0.581 | 0.608 | 0.57 | 1.35 | 1.74
12 | 2.61 | 1.64 | 1.81 | VYYGSYSRPYG [NKAP_Y104] | 8.1 | 7.11 | 6.16 | 1.19 | 1.7 | 2.01 | 2.66 | 2.87 | 8.09 | 0.835 | 9.54 | 0.756 | 2.77
13 | 0.267 | 0.621 | 0.945 | LEQRPYRRESE [KCNJ12_Y427] | 0.519 | 0.385 | 0.618 | 0.746 | 0.591 | 0.666 | 0.643 | 0.461 | 0.52 | 0.367 | 0.91 | 1.01 | 0.333
14 | 0.782 | 0.828 | 0.604 | VTAVAYRLAEQ [HK1_Y461] | 0.509 | 0.385 | 0.349 | 0.633 | 0.47 | 0.584 | 0.424 | 0.543 | 0.475 | 0.446 | 0.473 | 0.792 | 0.495
15 | 3.87 | 0.987 | 1.4 | FPRTGYSVPFG [TGM1_Y370_L366P_YF] | 1.11 | 0.511 | 0.485 | 0.686 | 0.493 | 0.513 | 0.504 | 0.688 | 0.419 | 0.421 | 0.475 | 0.709 | 0.379
16 | 1.38 | 2.38 | 1.52 | FMIISYVLIIR [OR1D2_Y218_V214M] | 0.625 | 0.437 | 0.446 | 0.936 | 0.225 | 0.559 | 0.483 | 0.383 | 0.553 | 0.491 | 0.426 | 0.631 | 0.651

Row | SH2 binding enrichment (c-Src SH2) | SH2 binding enrichment (Grb2 SH2) | SH2 binding enrichment (SHP2-C SH2) | Sequence | phosphorylation enrichment (c-Abl (mouse)) | phosphorylation enrichment (c-Src) | phosphorylation enrichment (MERTK) | phosphorylation enrichment (AncSZ) | phosphorylation enrichment (EPHB1) | phosphorylation enrichment (FGFR3) | phosphorylation enrichment (EPHB2) | phosphorylation enrichment (Jak2) | phosphorylation enrichment (Hck) | phosphorylation enrichment (Fer (mouse)) | phosphorylation enrichment (Fyn) | phosphorylation enrichment (Fes) | phosphorylation enrichment (FGFR1)
17 | 36 | 1.21 | 1.77 | LGPDGYSTVDQ [ARVCF_Y901_R906Q] | 1.31 | 0.848 | 0.707 | 1.63 | 0.876 | 1.21 | 1.22 | 1.72 | 0.9 | 0.833 | 0.982 | 2.87 | 1.04
18 | 0.424 | 0.759 | 0.701 | PGVNFYFRVSA | 1.37 | 0.599 | 0.743 | 1.73 | 0.914 | 1.88 | 0.759 | 1.53 | 0.817 | 0.708 | 0.653 | 2.13 | 1.14
19 | 4.39 | 1.43 | 1.63 | YYYDLYGGEKF [PTPN11_Y66_D61Y] | 0.964 | 5.71 | 9.48 | 1.98 | 7.99 | 13.6 | 11.5 | 5.36 | 6.45 | 4.15 | 5.97 | 1.3 | 14.7
20 | 0.52 | 0.907 | 0.567 | SEASGYQDNIA [DES_Y363] | 0.616 | 0.427 | 0.515 | 0.778 | 0.52 | 0.674 | 0.485 | 0.783 | 0.485 | 0.551 | 0.384 | 0.94 | 0.441
21 | 0.713 | 1.1 | 1.05 | FAELVYTVFWH [ASS1_Y322_G324V] | 12.5 | 7.17 | 8.06 | 2.15 | 2.33 | 3.34 | 2.94 | 2.27 | 5.47 | 6.19 | 7.64 | 1.63 | 4.39
22 | 0.305 | 0.676 | 0.667 | LADMNYVHRDL [EPHB2_Y742] | 0.923 | 0.721 | 0.796 | 1.51 | 0.762 | 0.801 | 0.565 | 0.916 | 0.916 | 0.933 | 0.481 | 1.6 | 0.714
23 | 0.448 | 0.708 | 0.61 | AHAGEYGADAL [HBA1_Y25_E28D] | 0.776 | 0.357 | 0.373 | 0.606 | 0.401 | 0.41 | 0.416 | 0.578 | 0.436 | 0.312 | 0.414 | 0.653 | 0.392
24 | 0.494 | 0.862 | 0.607 | VKPENYRRQDI [VHL_Y175_L178Q] | 0.465 | 0.365 | 0.379 | 0.475 | 0.274 | 0.4 | 0.367 | 0.469 | 0.309 | 0.304 | 0.344 | 0.504 | 0.343
25 | 3.04 | 0.861 | 0.82 | KIITDYYVDMK [MPP4_Y566_V562I] | 0.677 | 0.517 | 0.547 | 1.09 | 1.56 | 2.6 | 0.718 | 1.22 | 0.449 | 0.482 | 0.55 | 0.941 | 4.12
26 | 0.634 | 0.97 | 0.788 | VYSATYHPDHW [EFCAB12_Y544_P541S] | 2.06 | 5.17 | 10.3 | 1.02 | 1.06 | 1.18 | 1.13 | 1.05 | 5.4 | 4.14 | 6.37 | 1.24 | 1.33
27 | 6.08 | 0.994 | 1.14 | YHLLPYTIRAM [PARS2_Y93_V95I] | 25.4 | 5.16 | 10.9 | 1.14 | 1.17 | 13.8 | 0.873 | 7.24 | 9.37 | 0.464 | 3.83 | 0.83 | 16.6
28 | 0.553 | 0.928 | 0.887 | ACQGKYTPSSQ [ALDOA_Y343_G347S] | 0.392 | 0.449 | 0.404 | 0.542 | 0.346 | 0.466 | 0.389 | 0.421 | 0.417 | 0.425 | 0.433 | 0.579 | 0.362
29 | 0.883 | 1.21 | 0.959 | WASGIYYVPKG [APBB1IP_Y340_R335W] | 31.1 | 6.92 | 11.5 | 3.2 | 15.3 | 7.15 | 17 | 8.67 | 10.1 | 5.91 | 10 | 1.05 | 8.05
30 | 0.483 | 0.679 | 0.604 | CRWKRYQRSHD [GDPD5_Y30] | 0.482 | 0.579 | 0.487 | 0.675 | 0.458 | 0.508 | 0.516 | 0.573 | 0.527 | 0.469 | 0.472 | 0.563 | 0.481
31 | 0.485 | 0.952 | 0.741 | ERNTVYSSSGV [NELL2_Y350] | 0.521 | 0.666 | 0.39 | 0.539 | 0.502 | 0.679 | 0.379 | 0.405 | 0.768 | 0.359 | 0.544 | 0.474 | 0.372
32 | 0.681 | 0.686 | 0.726 | GLRQSYFVEAQ [APCS_Y142_G141S] | 0.48 | 0.453 | 0.543 | 0.717 | 0.532 | 0.697 | 0.491 | 0.596 | 0.505 | 0.378 | 0.457 | 0.825 | 0.612

Row | Sequence | SH2 binding enrichment (c-Src SH2) | SH2 binding enrichment (Grb2 SH2) | SH2 binding enrichment (SHP2-C SH2) | phosphorylation enrichment (c-Abl (mouse)) | phosphorylation enrichment (c-Src) | phosphorylation enrichment (MERTK) | phosphorylation enrichment (AncSZ) | phosphorylation enrichment (EPHB1) | phosphorylation enrichment (FGFR3) | phosphorylation enrichment (EPHB2) | phosphorylation enrichment (Jak2) | phosphorylation enrichment (Hck) | phosphorylation enrichment (Fer (mouse)) | phosphorylation enrichment (Fyn) | phosphorylation enrichment (Fes) | phosphorylation enrichment (FGFR1)
33 | FKTPIYPFLLP [PLD2_Y578_T577I_YF] | 0.825 | 1.14 | 0.892 | 0.747 | 0.559 | 1.57 | 1.11 | 0.564 | 0.782 | 0.563 | 0.91 | 0.523 | 0.497 | 0.456 | 0.883 | 1.06
